Data taken from the Human Domainome abundance scans (Beltran et al. 2025).
± gives the uncertainty stated by the source.

B1: Lysine-specific demethylase 2B, residues 656 to 722; numbered along this chain, Q8NHM5 (parent)
chain: LPHTAVCLVCGEAGKEDTVEEEEGKFNLMLMECSICNEIIHPGCLKIKESEGVVNDELPNCWECPKC
B2: POU domain, class 3, transcription factor 2, residues 262 to 338; numbered along this chain, P20265 (parent)
chain: EDTPTSDDLEQFAKQFKQRRIKLGFTQADVGLALGTLYGNVFSQTTICRFEALQLSFKNMCKLKPLLNKWLEEADSS

Variants of: B1
Test: abundance fitness (aPCA) (normalised: wild type 0, dead -1); higher = more abundant; growth selection in yeast, the domain comes from the species named
Settings: Homo sapiens

Abundance fitness: each site, then its substitutions
G11: E -0.174 ± 0.1 | T -0.354 ± 0.11 | N -0.382 ± 0.24 | H -0.362 ± 0.27 | C -0.541 ± 0.19 | R -0.051 ± 0.06 | F -0.063 ± 0.14 | Q 0.129 ± 0.1 | I -0.828 ± 0.49 | K 0.222 ± 0.096 | W -0.533 ± 0.12 | P -0.626 ± 0.15 | S -0.113 ± 0.11 | A -0.139 ± 0.13 | L 0.046 ± 0.074 | M -0.308 ± 0.087
G14: N -0.003 ± 0.096 | L -0.508 ± 0.094 | I -0.418 ± 0.2 | M -0.172 ± 0.14 | W -0.635 ± 0.095 | E -0.395 ± 0.17 | A -0.428 ± 0.1 | S -0.043 ± 0.081 | V -0.139 ± 0.082 | Q -0.009 ± 0.11 | C -1.04 ± 0.28 | K -0.229 ± 0.19 | F 0.104 ± 0.18 | R 0.04 ± 0.069 | T -0.24 ± 0.097
K15: T -0.202 ± 0.13 | A -0.525 ± 0.11 | C -0.611 ± 0.14 | D -1.01 ± 0.29 | W 0.017 ± 0.18 | L -0.154 ± 0.067 | G -0.206 ± 0.1 | F -0.368 ± 0.14 | Q -0.378 ± 0.17 | H -0.65 ± 0.4 | E -0.175 ± 0.17 | M 0.12 ± 0.092 | P -0.609 ± 0.11 | I -0.305 ± 0.16 | N -0.751 ± 0.37 | Y -0.583 ± 0.22 | R -0.355 ± 0.11
T18: K -0.131 ± 0.15 | N -0.026 ± 0.27 | P -0.268 ± 0.13 | A -0.514 ± 0.13 | D -0.527 ± 0.23 | R -0.188 ± 0.081 | E -0.471 ± 0.17 | M -0.092 ± 0.18 | Q -0.062 ± 0.095 | V -0.569 ± 0.15 | I -0.14 ± 0.11 | C -0.213 ± 0.14 | L -0.042 ± 0.094 | Y -0.427 ± 0.29 | W -0.331 ± 0.12 | F -0.113 ± 0.11 | G -0.399 ± 0.088
V19: F 0.151 ± 0.21 | E -0.469 ± 0.13 | A -0.049 ± 0.089 | Y -0.295 ± 0.18 | G -0.193 ± 0.078 | D -0.459 ± 0.23 | H -0.24 ± 0.44 | T 0.013 ± 0.1 | M -0.067 ± 0.22 | R 0.056 ± 0.086 | S -0.151 ± 0.13 | I -0.131 ± 0.33 | W -0.429 ± 0.17 | L 0.017 ± 0.11
E12: N -0.365 ± 0.17 | A -0.139 ± 0.081 | V -0.303 ± 0.11 | R -0.016 ± 0.06 | Q 0.078 ± 0.1 | I -0.357 ± 0.23 | T 0.045 ± 0.073 | G 0.099 ± 0.073 | C -0.159 ± 0.13 | P -0.458 ± 0.12 | M 0.089 ± 0.097 | W -0.224 ± 0.085
L8: I 0.099 ± 0.24 | R 0.104 ± 0.14 | S -0.34 ± 0.17 | P -0.433 ± 0.24 | G -0.588 ± 0.17 | H -0.281 ± 0.3 | D -0.573 ± 0.24 | K 0.146 ± 0.13 | M 0.172 ± 0.29 | E -0.584 ± 0.23
E21: L -0.284 ± 0.082 | I -0.566 ± 0.3 | C -0.068 ± 0.17 | K 0.022 ± 0.13 | P 0.033 ± 0.15 | D -0.028 ± 0.22 | M -0.062 ± 0.12 | A 0.107 ± 0.1 | H 0.264 ± 0.26 | F -0.559 ± 0.48 | G 0.12 ± 0.1
D17: T -0.194 ± 0.07 | K -0.174 ± 0.16 | G 0.104 ± 0.091 | P -0.168 ± 0.15 | R -0.066 ± 0.082 | M 0.392 ± 0.15 | E -0.069 ± 0.081 | A -0.173 ± 0.092 | F -0.017 ± 0.16 | N -0.035 ± 0.31 | V -0.088 ± 0.062 | S -0.083 ± 0.081 | I 0.068 ± 0.22 | L -0.369 ± 0.09 | Y -0.315 ± 0.13 | W -0.553 ± 0.12 | C 0.039 ± 0.17 | Q -0.091 ± 0.12 | H 0.099 ± 0.17
E20: F -0.343 ± 0.12 | Q -0.126 ± 0.12 | G 0.035 ± 0.098 | A -0.046 ± 0.095 | S -0.191 ± 0.093 | P -0.081 ± 0.16 | V -0.03 ± 0.08 | D -0.276 ± 0.23 | R 0.033 ± 0.07 | C -0.105 ± 0.063 | L -0.146 ± 0.074 | H -0.176 ± 0.21 | T -0.169 ± 0.11 | W -0.4 ± 0.11
V6: N -0.085 ± 0.23 | A -0.557 ± 0.25 | Q -0.541 ± 0.3 | S -0.094 ± 0.17 | T 0.12 ± 0.13 | E -0.378 ± 0.19 | P -0.124 ± 0.14 | R -0.285 ± 0.14 | H 0.409 ± 0.22 | G -0.64 ± 0.12 | D -0.293 ± 0.49 | K 0.194 ± 0.1 | L -0.004 ± 0.1 | I 0.145 ± 0.088 | W -0.759 ± 0.2
C7: D -0.902 ± 0.34 | A -0.691 ± 0.28 | Y -1.04 ± 0.2 | T -0.491 ± 0.41 | R -0.908 ± 0.31
L1: G -0.129 ± 0.13 | F 0.761 ± 0.073 | I 0.781 ± 0.11 | H -0.174 ± 0.48 | K -0.363 ± 0.14 | R -0.185 ± 0.14 | T 0.035 ± 0.1 | E -0.245 ± 0.33 | Q -0.468 ± 0.24 | W -0.426 ± 0.12 | M 0.071 ± 0.082 | A -0.175 ± 0.22 | N 1.01 ± 0.2 | S -0.069 ± 0.089 | C 0.414 ± 0.19
P2: Y 0.713 ± 0.097 | C 0.396 ± 0.13 | N 0.758 ± 0.17 | D 0.787 ± 0.15 | T 0.844 ± 0.1 | S 0.729 ± 0.13 | R 0.664 ± 0.11 | E 0.854 ± 0.14 | I 0.783 ± 0.15 | L 0.807 ± 0.12 | A 0.708 ± 0.14 | K 0.78 ± 0.15 | F 0.359 ± 0.31 | W 0.667 ± 0.14 | Q 0.184 ± 0.15 | G 0.588 ± 0.14
A5: M 0.195 ± 0.088 | T 0.138 ± 0.16 | R 0.073 ± 0.14 | C 0.07 ± 0.3 | G -0.338 ± 0.17 | K 0.038 ± 0.17 | L -0.004 ± 0.13 | N -0.051 ± 0.26 | E -0.696 ± 0.29 | Y 0.625 ± 0.35 | Q -0.095 ± 0.22 | P 0.006 ± 0.13 | W 0.055 ± 0.17 | S -0.192 ± 0.15 | D -0.726 ± 0.34
T4: A -0.889 ± 0.26 | R -0.979 ± 0.23 | G -0.623 ± 0.17 | V -0.947 ± 0.28 | Q -0.729 ± 0.36 | D -0.2 ± 0.21 | S -0.345 ± 0.16 | K -0.964 ± 0.48 | M -0.878 ± 0.24 | I -0.288 ± 0.46 | E -0.448 ± 0.16 | L -1.21 ± 0.39 | N -0.205 ± 0.25 | W -0.889 ± 0.23 | C -0.395 ± 0.2
V9: G -0.273 ± 0.1 | P -0.707 ± 0.14 | C -0.817 ± 0.26 | L -0.126 ± 0.083 | Q -0.635 ± 0.27 | W -0.727 ± 0.45 | N 0.239 ± 0.3 | S -0.1 ± 0.12 | M -0.049 ± 0.12 | D -0.287 ± 0.084 | R -0.297 ± 0.1 | T 0.127 ± 0.1 | F -0.257 ± 0.24 | E -0.053 ± 0.15 | I 0.226 ± 0.081 | A -0.042 ± 0.099 | K 0.088 ± 0.085
A13: I 0.169 ± 0.17 | R 0.443 ± 0.066 | E 0.214 ± 0.097 | K 0.175 ± 0.14 | M 0.286 ± 0.1 | H -0.437 ± 0.24 | S 0.177 ± 0.073 | F 0.001 ± 0.14 | T -0.022 ± 0.13 | D -0.138 ± 0.15 | V 0.085 ± 0.075 | L -0.077 ± 0.075 | C -0.297 ± 0.14 | G 0.387 ± 0.058 | W -0.228 ± 0.088 | Q 0.471 ± 0.11 | Y -0.117 ± 0.14 | N -0.618 ± 0.23
H3: F -0.359 ± 0.17 | E 0.34 ± 0.13 | W -0.572 ± 0.12 | L 0.048 ± 0.074 | V 0.234 ± 0.089 | K 0.506 ± 0.1 | N 0.177 ± 0.16 | Q -0.015 ± 0.12 | A -0.013 ± 0.12 | M 0.478 ± 0.15 | C -0.642 ± 0.17 | G 0.42 ± 0.067 | T 0.147 ± 0.087 | Y -0.328 ± 0.25 | P -0.14 ± 0.14
C10: M -0.613 ± 0.17 | Q -0.528 ± 0.15 | G -0.277 ± 0.083 | K -0.124 ± 0.12 | P -0.517 ± 0.23 | E -0.329 ± 0.096 | R -0.53 ± 0.087 | N -0.259 ± 0.33 | S -0.332 ± 0.076 | H -0.828 ± 0.31 | T -0.244 ± 0.094 | I -1.04 ± 0.27 | F -0.868 ± 0.19 | V -1 ± 0.25 | Y -0.66 ± 0.39 | W -1.14 ± 0.21 | A -0.37 ± 0.098 | L -1.01 ± 0.14
E16: M -0.148 ± 0.13 | V -0.258 ± 0.094 | Y -0.786 ± 0.23 | F -0.497 ± 0.22 | S -0.204 ± 0.13 | R -0.148 ± 0.083 | I -0.467 ± 0.22 | L -0.283 ± 0.071 | P -0.043 ± 0.1 | C -0.556 ± 0.21 | A -0.378 ± 0.15 | G -0.137 ± 0.086 | T 0.167 ± 0.16 | N -0.646 ± 0.29 | D -0.609 ± 0.19 | W -0.638 ± 0.24 | Q 0.022 ± 0.12

Variants of: B2
Test: as above
Settings: Homo sapiens

Abundance fitness, by site and new letter:
G24: V -0.814 ± 0.044
A33: Y -0.314 ± 0.087
Q18: Y -0.295 ± 0.17 | S -0.018 ± 0.037
D2: R -0.03 ± 0.029
L63: F -0.347 ± 0.082
T3: W -0.202 ± 0.042
K58: M -0.12 ± 0.055
L32: R -0.033 ± 0.38
I47: D -0.786 ± 0.11
G31: P -0.648 ± 0.076 | L -0.59 ± 0.057
F12: A -0.283 ± 0.13
G39: E -0.207 ± 0.036 | R -0.25 ± 0.03
S56: D -0.093 ± 0.065
D75: A 0.009 ± 0.031
L55: Y -0.285 ± 0.062
A52: L -0.111 ± 0.037
K69: N -0.298 ± 0.25
V41: M 0.012 ± 0.068
P65: L -0.375 ± 0.13
Q15: I -0.068 ± 0.15
